± gives the standard deviation of the averaged measurements.
What follows are sequences tested on Saccharomyces cerevisiae (assay: protein stability index of tFT-peptide fusion (C-terminal peptide) (PSI (0-1 scale)); higher = more stable (slower turnover)). Settings: genetic background: wild type; temperature: 30 C.
Description: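 Multiplexed protein stability (MPS) profiling in S. cerevisiae. Random 12-aa peptides (tFT-X12 library) are fused to the C-terminus of a sfGFP-mCherry tandem fluorescent timer, after mCherry and a GGGS linker. Cells are FACS-sorted into 8 mCherry/sfGFP bins and deep-sequenced. The protein stability index (PSI) is the read-weighted bin average, scaled from 0 (unstable) to 1 (stable). Only peptides with >10 reads are reported; cells were grown at 30 °C in SC-His with glucose.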
GSVRCGLRVRVG gave a protein stability index of 0.605 ± 0.047.
For GSWIKFVCRRAG, the protein stability index was 0.731 ± 0.0095.
For GSWLGGRTLAGI, the protein stability index was 0.707 ± 0.036.
Sequence GTACIIVSGYGL has a protein stability index of 0.643 ± 0.016.
GTCWAGAMGGVG gave a protein stability index of 0.675 ± 0.042.
Sequence GTDLKGFPFLTF has a protein stability index of 0.688 ± 0.014.
In the case of GTEKESRRKREQ, the protein stability index is reported as 0.698 ± 0.042.
For GTGERHIASEEK, the protein stability index was 0.728 ± 0.013.
GTGMHEGEPGEV gave a protein stability index of 0.686 ± 0.046.
With GTGRGRAGARCK the protein stability index was 0.679 ± 0.018.
Work on GTRAGGRSKRER yielded a protein stability index of 0.735 ± 0.11.
Sequence GTRWPLVAPRER has a protein stability index of 0.7254 ± 0.0045.
In the case of GTVGRPNATGKV, the protein stability index is reported as 0.742 ± 0.088.
GVAEFDGWFCLG gave a protein stability index of 0.7329 ± 0.0022.
GVAWGCVSRVFG showed a protein stability index of 0.68 ± 0.045.
Sequence GVCLGCWCWWVG has a protein stability index of 0.604 ± 0.044.
GVCVLGGWSGFW was tested, and the protein stability index was 0.758 ± 0.062.
Sequence GVDPVGVLFCGA has a protein stability index of 0.656 ± 0.074.
Sequence GVEGAEFVEAGT has a protein stability index of 0.699 ± 0.041.
GVEGCKRAGKLR gave a protein stability index of 0.651 ± 0.033.
GVERLGGVLYVL showed a protein stability index of 0.6274 ± 0.0015.
In the case of GVFWGYGLRDGV, the protein stability index is reported as 0.731 ± 0.073.
Work on GVGCGGACRPVG yielded a protein stability index of 0.662 ± 0.09.
With GVGFGCGGVWME the protein stability index was 0.731 ± 0.012.
GVGFGGGGVWME was tested, and the protein stability index was 0.746 ± 0.031.
In the case of GVGGGEAGVIGR, the protein stability index is reported as 0.769 ± 0.041.
GVGGGGRLMCGV showed a protein stability index of 0.667 ± 0.04.
For GVGGGGVGLWLG, the protein stability index was 0.656 ± 0.025.
Sequence GVGSGEASDGCT has a protein stability index of 0.626 ± 0.12.
GVGWVWGGVWAG showed a protein stability index of 0.744 ± 0.045.
In the case of GVGYRLGACPDR, the protein stability index is reported as 0.695 ± 0.053.
GVIQARRSASSS gave a protein stability index of 0.689 ± 0.043.
Work on GVLEEVGPGLFL yielded a protein stability index of 0.78 ± 0.14.
GVLGPSFLSVAV was tested, and the protein stability index was 0.584 ± 0.0082.
For GVLGRVRLGWVG, the protein stability index was 0.671 ± 0.012.
In the case of GVLKQGSLPCRD, the protein stability index is reported as 0.706 ± 0.14.
GVLSYCGFVTFG gave a protein stability index of 0.603 ± 0.02.
GVMCRTGSGMVM was tested, and the protein stability index was 0.711 ± 0.021.
GVNDRLIKMSCA gave a protein stability index of 0.667 ± 0.033.
With GVPFPGPNTLIL the protein stability index was 0.73 ± 0.075.
In the case of GVRGLLAGGGVW, the protein stability index is reported as 0.709 ± 0.027.
GVRRSRAARVRK showed a protein stability index of 0.777 ± 0.18.
GVTYEDFWGYCG gave a protein stability index of 0.797 ± 0.018.
GVVGGGGEAWRE showed a protein stability index of 0.794 ± 0.038.
Work on GVVGTVEGGATG yielded a protein stability index of 0.658 ± 0.037.
GVVGVWRGAGWR showed a protein stability index of 0.717 ± 0.041.
For GVVSSHVDMIGL, the protein stability index was 0.668 ± 0.0067.
For GVVVGCGYGLVG, the protein stability index was 0.665 ± 0.04.
GVVWMSCGGGGG showed a protein stability index of 0.7684 ± 0.0017.
In the case of GVWEGLQLGLIS, the protein stability index is reported as 0.7826 ± 0.0032.
GVWGGGGGWGVA was tested, and the protein stability index was 0.688 ± 0.0096.
With GVWPVGWWCRGR the protein stability index was 0.748 ± 0.047.
In the case of GWCACFMGSGWG, the protein stability index is reported as 0.703 ± 0.06.
Sequence GWCRSYVAFGVY has a protein stability index of 0.64 ± 0.052.
In the case of GWDRDQKPENKE, the protein stability index is reported as 0.738 ± 0.045.
For GWFTMLTGAFAE, the protein stability index was 0.7249 ± 0.003.
Work on GWGGGAAQKCGQ yielded a protein stability index of 0.7 ± 0.039.
GWGGGGFRVVVG gave a protein stability index of 0.782 ± 0.049.
GWGMVLYRNMML gave a protein stability index of 0.6039 ± 0.0046.
Work on GWGRGGFRVVVG yielded a protein stability index of 0.712 ± 0.02.
For GWLASPHFPYAY, the protein stability index was 0.6883 ± 0.001.
GWLIWRVYGGGG was tested, and the protein stability index was 0.654 ± 0.014.
GWSRCVFGGYRL gave a protein stability index of 0.7 ± 0.022.
Work on GWSSTLTFLGGA yielded a protein stability index of 0.701 ± 0.0078.
With GWTQFVLHSMFG the protein stability index was 0.72 ± 0.088.
GWVPCGSWRVPG gave a protein stability index of 0.631 ± 0.038.
Sequence GWVQRGAEARRE has a protein stability index of 0.705 ± 0.047.
GWWGCGASVCGV was tested, and the protein stability index was 0.72 ± 0.15.
For GYARESERFGIH, the protein stability index was 0.694 ± 0.011.
In the case of GYFHADYIPLSY, the protein stability index is reported as 0.7474 ± 0.0029.
GYGPSFALRPDS showed a protein stability index of 0.651 ± 0.026.
GYGWGVGWGFGR gave a protein stability index of 0.673 ± 0.028.
In the case of GYMRMGLCVYSD, the protein stability index is reported as 0.596 ± 0.092.
In the case of GYRGMERGEGGG, the protein stability index is reported as 0.723 ± 0.068.
For GYTSRGISFLRA, the protein stability index was 0.698 ± 0.042.
For GYVVVGGGGGLG, the protein stability index was 0.717 ± 0.039.
Sequence HAQRTSSRRAKS has a protein stability index of 0.711 ± 0.019.
With HARFRPRKAVGD the protein stability index was 0.67 ± 0.042.
HATFSLFLASCY showed a protein stability index of 0.625 ± 0.011.
Work on HCLIPGEIHRIS yielded a protein stability index of 0.6741 ± 0.0037.
HCRDCLVLIQFN gave a protein stability index of 0.664 ± 0.048.

— the supplement of paper PMC10724198
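Further: PSI is a weighted mean of sequencing reads over stability bins, variants kept only with over 10 reads, mCherry proximal and sfGFP distal, peptide attached via GGGS linker.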
